Substitutions are numbered along the chain they refer to. Names may count otherwise.
T1: human Fc gamma RIIb extracellular domain, His-tagged (human, UniProt P31994 43-217)
T1 construct: also called FcgRIIb
T1 sequence: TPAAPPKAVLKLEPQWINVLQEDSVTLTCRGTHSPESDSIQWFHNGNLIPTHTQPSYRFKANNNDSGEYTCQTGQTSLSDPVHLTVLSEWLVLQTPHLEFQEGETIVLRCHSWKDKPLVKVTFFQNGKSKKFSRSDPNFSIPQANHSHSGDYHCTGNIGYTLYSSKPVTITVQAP

T2: cyno Fc gamma RIIb extracellular domain, His-tagged (cynomolgus monkey)
T2 construct: also called cynoFcgRIIb
T2 chain: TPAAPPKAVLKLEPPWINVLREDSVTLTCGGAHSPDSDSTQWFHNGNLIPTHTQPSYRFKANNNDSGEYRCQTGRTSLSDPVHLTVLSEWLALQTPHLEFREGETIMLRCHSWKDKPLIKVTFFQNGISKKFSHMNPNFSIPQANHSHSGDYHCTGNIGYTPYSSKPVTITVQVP

T3: human latent myostatin (human, UniProt O14793 25-266; O14793 267-375)
T3 construct: non-covalent complex of two propeptides and the mature homodimer; also called human myostatin latent form
T3 sequence 1: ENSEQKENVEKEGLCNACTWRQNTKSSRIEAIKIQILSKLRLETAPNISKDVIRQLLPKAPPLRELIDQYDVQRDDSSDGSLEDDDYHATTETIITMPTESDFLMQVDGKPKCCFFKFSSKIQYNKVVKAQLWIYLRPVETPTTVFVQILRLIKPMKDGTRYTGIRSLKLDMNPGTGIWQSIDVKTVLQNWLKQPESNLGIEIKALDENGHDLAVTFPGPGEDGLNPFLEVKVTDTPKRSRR
T3 sequence 2: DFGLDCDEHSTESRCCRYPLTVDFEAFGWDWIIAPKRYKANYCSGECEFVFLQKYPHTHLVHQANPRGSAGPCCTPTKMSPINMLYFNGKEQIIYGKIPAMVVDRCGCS

T4: cynomolgus monkey latent myostatin (cynomolgus monkey, UniProt Q95J86 25-266; Q95J86 267-375, limits assumed)
T4 construct: also called cyno latent myostatin
T4 sequence 1: T3 sequence 1 with V52A
T4 sequence 2: T3 sequence 2

T5: mouse latent myostatin (mouse, UniProt O08689 26-267; O08689 268-376)
T5 sequence 1: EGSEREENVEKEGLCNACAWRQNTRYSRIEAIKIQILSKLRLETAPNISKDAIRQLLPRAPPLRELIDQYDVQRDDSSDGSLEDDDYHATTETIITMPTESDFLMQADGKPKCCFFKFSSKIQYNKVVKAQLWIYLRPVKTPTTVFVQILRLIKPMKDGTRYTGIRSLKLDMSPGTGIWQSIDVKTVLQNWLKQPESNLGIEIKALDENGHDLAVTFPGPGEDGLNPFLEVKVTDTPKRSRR
T5 sequence 2: T3 sequence 2

B1: M103205H795-SG1 H268E/M103202L889-SK1 (antibody, human IgG1, kappa)
heavy: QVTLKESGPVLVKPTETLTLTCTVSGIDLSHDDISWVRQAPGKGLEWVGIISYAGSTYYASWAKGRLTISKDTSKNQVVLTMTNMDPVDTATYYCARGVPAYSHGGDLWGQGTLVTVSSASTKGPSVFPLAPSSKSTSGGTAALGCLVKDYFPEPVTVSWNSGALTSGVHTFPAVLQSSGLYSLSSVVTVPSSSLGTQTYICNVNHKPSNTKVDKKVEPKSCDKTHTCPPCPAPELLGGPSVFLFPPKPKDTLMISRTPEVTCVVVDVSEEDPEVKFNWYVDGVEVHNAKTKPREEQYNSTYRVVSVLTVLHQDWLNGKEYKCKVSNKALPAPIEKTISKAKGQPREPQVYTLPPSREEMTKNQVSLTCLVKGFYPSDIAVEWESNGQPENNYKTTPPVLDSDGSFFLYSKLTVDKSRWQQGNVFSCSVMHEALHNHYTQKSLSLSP
light: DIVMTQSPATLSLSPGERATLSCTSSQSVYHANWLSWFQQKPGQPPKLLIYWASTLAYGVPSRFSGSGSGTDFTLTISSLQPEDAATYYCAGGYGGGRYAFGQGTKVEIKRTVAAPSVFIFPPSDEQLKSGTASVVCLLNNFYPREAKVQWKVDNALQSGNSQESVTEQDSKDSTYSLSSTLTLSKADYEKHKVYACEVTHQGLSSPVTKSFNRGEC
notes: copies: 2 + 2
B2: M103205H795-SG1 I332D/M103202L889-SK1 (antibody, human IgG1, kappa)
heavy: not shown
light: B1 light
notes: copies: 2 + 2
B3: M103205H795-SG1 K326T/M103202L889-SK1 (antibody, human IgG1, kappa)
heavy: not shown
light: B1 light
notes: copies: 2 + 2
B4: M103205H795-SG1 K334I/M103202L889-SK1 (antibody, human IgG1, kappa)
heavy: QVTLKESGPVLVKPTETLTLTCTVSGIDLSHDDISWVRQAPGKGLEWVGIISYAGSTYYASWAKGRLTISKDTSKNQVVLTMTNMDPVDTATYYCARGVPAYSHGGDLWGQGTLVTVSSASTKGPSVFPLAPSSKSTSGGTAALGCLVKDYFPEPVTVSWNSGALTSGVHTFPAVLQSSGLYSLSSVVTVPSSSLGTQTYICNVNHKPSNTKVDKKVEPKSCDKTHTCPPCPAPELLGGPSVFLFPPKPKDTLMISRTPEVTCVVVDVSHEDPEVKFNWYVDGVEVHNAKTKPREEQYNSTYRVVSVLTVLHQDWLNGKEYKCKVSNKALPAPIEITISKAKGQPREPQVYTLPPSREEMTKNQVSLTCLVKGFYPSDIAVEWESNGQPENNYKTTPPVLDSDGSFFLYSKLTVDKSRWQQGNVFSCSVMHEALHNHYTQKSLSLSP
light: B1 light
notes: copies: 2 + 2
B5: M103205H795-SG1 K334M/M103202L889-SK1 (antibody, human IgG1, kappa)
heavy: not shown
light: B1 light
notes: copies: 2 + 2
B6: M103205H795-SG1 K334V/M103202L889-SK1 (antibody, human IgG1, kappa)
heavy: not shown
light: B1 light
notes: copies: 2 + 2
B7: M103205H795-SG1 L234W/M103202L889-SK1 (antibody, human IgG1, kappa)
heavy: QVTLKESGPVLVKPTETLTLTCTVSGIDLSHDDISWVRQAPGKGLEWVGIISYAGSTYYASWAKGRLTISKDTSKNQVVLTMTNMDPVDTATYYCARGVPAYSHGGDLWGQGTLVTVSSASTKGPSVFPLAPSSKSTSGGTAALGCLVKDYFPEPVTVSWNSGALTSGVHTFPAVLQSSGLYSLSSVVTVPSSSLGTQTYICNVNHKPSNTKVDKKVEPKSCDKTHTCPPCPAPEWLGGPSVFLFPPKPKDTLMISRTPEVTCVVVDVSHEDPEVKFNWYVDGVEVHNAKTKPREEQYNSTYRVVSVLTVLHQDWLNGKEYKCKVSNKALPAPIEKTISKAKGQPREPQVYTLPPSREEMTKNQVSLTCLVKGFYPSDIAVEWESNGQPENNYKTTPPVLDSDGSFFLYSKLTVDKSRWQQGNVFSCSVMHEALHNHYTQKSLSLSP
light: B1 light
notes: copies: 2 + 2
B8: M103205H795-SG1 L235W/M103202L889-SK1 (antibody, human IgG1, kappa)
heavy: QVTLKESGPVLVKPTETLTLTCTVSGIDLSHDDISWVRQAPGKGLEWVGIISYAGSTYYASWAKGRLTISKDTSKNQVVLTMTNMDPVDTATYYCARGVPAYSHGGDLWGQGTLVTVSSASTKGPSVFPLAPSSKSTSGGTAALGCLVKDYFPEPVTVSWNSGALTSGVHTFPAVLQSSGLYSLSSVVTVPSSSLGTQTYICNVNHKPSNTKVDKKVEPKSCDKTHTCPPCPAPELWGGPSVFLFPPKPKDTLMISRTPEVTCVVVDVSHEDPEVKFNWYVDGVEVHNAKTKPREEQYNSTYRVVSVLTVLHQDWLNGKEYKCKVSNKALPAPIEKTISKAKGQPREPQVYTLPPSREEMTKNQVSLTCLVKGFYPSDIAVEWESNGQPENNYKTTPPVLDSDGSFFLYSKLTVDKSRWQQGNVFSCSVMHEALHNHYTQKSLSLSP
light: B1 light
notes: copies: 2 + 2
B9: M103205H795-SG1 P271G/M103202L889-SK1 (antibody, human IgG1, kappa)
heavy: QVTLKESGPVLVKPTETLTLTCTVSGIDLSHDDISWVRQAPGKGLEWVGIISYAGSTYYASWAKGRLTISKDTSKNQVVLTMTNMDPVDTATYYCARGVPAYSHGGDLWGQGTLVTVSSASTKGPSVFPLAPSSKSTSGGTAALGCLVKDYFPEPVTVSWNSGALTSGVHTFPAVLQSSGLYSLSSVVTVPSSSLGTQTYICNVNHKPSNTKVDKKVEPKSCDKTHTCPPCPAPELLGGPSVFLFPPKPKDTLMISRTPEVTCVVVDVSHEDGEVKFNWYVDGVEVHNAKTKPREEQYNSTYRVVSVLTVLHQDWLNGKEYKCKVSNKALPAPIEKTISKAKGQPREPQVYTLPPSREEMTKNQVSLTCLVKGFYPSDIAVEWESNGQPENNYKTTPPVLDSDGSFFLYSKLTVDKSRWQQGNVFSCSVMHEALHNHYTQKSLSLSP
light: B1 light
notes: copies: 2 + 2
B10: M103205H795-SG1 P331E/M103202L889-SK1 (antibody, human IgG1, kappa)
heavy: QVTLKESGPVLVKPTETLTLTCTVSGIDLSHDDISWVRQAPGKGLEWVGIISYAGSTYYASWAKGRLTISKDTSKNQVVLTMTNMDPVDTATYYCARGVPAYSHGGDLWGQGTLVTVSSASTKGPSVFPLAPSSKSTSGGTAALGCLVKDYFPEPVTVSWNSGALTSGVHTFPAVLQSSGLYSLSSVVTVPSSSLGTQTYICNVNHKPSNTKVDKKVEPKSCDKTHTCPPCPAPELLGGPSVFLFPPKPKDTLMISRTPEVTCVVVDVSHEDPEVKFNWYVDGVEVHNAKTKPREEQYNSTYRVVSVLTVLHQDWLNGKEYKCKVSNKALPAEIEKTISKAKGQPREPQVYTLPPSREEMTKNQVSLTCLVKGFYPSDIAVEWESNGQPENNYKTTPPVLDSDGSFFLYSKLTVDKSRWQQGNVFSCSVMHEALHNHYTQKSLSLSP
light: B1 light
notes: copies: 2 + 2
B11: M103205H795-SG1 P396M/M103202L889-SK1 (antibody, human IgG1, kappa)
heavy: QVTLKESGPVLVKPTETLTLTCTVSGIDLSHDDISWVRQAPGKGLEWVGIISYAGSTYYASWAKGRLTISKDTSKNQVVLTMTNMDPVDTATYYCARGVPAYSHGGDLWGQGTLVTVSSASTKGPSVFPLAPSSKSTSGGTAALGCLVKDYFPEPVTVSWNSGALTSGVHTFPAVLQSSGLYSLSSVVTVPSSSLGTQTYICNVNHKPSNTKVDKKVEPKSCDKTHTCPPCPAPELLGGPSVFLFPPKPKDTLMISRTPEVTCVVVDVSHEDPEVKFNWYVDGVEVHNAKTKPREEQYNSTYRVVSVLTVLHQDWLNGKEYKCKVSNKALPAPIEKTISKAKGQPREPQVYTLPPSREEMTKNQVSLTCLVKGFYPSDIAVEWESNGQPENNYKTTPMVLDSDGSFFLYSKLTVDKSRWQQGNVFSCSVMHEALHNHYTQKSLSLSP
light: B1 light
notes: copies: 2 + 2
B12: M103205H795-SG1 Q295L/M103202L889-SK1 (antibody, human IgG1, kappa)
heavy: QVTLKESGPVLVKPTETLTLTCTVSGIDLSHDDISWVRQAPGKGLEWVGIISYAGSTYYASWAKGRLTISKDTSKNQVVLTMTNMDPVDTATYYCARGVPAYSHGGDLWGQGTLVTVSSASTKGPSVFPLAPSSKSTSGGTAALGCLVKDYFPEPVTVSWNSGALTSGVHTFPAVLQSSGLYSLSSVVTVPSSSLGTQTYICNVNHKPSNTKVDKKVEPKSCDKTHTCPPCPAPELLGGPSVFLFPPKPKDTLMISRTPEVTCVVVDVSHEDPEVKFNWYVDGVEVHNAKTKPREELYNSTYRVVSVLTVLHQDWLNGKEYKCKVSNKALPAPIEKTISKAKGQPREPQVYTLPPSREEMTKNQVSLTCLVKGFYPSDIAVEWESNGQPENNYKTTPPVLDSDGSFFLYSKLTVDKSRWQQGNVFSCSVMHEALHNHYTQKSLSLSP
light: B1 light
notes: copies: 2 + 2
B13: M103205H795-SG1 S239V/M103202L889-SK1 (antibody, human IgG1, kappa)
heavy: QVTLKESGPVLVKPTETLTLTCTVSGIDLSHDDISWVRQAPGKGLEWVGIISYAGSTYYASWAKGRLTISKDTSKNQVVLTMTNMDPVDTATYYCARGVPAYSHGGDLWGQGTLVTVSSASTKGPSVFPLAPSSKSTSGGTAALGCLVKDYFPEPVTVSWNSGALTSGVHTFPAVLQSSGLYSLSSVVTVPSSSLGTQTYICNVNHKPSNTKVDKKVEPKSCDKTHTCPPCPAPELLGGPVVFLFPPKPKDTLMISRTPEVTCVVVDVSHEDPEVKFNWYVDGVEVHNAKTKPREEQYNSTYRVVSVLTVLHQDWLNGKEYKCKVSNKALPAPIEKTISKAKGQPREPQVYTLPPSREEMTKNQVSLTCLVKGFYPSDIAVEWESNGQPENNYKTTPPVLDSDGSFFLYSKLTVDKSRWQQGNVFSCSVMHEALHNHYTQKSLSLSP
light: B1 light
notes: copies: 2 + 2
B14: M103205H795-SG1 S267A/M103202L889-SK1 (antibody, human IgG1, kappa)
heavy: not shown
light: B1 light
notes: copies: 2 + 2
B15: M103205H795-SG1 S298L/M103202L889-SK1 (antibody, human IgG1, kappa)
heavy: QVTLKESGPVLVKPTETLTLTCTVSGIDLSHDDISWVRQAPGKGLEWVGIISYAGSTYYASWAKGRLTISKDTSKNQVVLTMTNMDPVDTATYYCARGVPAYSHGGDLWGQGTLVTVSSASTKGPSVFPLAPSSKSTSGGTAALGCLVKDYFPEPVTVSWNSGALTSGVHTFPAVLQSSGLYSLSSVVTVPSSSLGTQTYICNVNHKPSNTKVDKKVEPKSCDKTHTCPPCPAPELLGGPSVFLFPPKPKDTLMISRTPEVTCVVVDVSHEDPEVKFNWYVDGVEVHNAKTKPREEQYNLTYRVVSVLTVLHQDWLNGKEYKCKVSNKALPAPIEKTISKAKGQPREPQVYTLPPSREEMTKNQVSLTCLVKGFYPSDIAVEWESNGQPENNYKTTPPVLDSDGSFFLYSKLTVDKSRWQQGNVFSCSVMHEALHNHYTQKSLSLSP
light: B1 light
notes: copies: 2 + 2
B16: MS_M103205H707-SG1/M103202L802-SK1 (antibody, human IgG1, kappa, V domains shown)
VH: QVTLKESGPVLVKPTETLTLTCTVSGIDLSHYDISWVRQAPGKGLEWVGIISYAGSTYYASWAKGRLTISKDTSKNQVVLTMTNMDPVDTATYYCARGVPAYSHGGDLWGQGTLVTVSS
VL: DIVMTQSPATLSLSPGERATLSCTSSQSVYHDNWLSWFQQKPGQPPKLLIYWASTLAYGVPSRFSGSGSGTDFTLTISSLQPEDAATYYCAGGYGGGLYAFGQGTKVEIKR
notes: also called MS1032LO04-SG1
B17: MS_M103205H781-SG1/M103202L719-SK1 (antibody, human IgG1, kappa, V domains shown)
VH: B16 VH with Y32T, A60M
VL: B16 VL with T24Q, D32N, Y58F
notes: also called MS1032LO02-SG1
B18: MS_M103205H781-SG1/M103202L813-SK1 (antibody, human IgG1, kappa, V domains shown)
VH: B16 VH with Y32T, A60M
VL: B16 VL with T24Q, S25T, Y58S, L98R
notes: also called MS1032LO03-SG1
B19: MS_M103205H795-SG1/M103202L889-SK1 (antibody, human IgG1, kappa)
heavy: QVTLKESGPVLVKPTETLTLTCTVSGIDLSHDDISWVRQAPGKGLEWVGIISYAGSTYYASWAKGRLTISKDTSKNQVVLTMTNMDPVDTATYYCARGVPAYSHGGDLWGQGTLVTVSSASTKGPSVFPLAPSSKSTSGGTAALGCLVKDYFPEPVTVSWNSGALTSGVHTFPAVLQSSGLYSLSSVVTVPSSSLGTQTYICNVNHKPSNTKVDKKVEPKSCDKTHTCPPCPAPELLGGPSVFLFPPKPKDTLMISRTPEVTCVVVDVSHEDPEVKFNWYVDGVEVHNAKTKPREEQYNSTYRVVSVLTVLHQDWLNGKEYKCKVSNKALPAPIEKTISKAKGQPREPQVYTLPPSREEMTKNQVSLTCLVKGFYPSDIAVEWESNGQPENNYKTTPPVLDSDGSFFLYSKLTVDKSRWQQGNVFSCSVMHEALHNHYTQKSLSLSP
light: B1 light
notes: also called MS1032LO06-SG1
B20: MS_M103205H795-SG1/M103202L1060-SK1 (antibody, human IgG1, kappa, V domains shown)
VH: B16 VH with Y32D
VL: B16 VL with Y30F, D32E, Y58W, L98R
notes: also called MS1032LO24-SG1
B21: MS_M103205H1004-SG1/M103202L889-SK1 (antibody, human IgG1, kappa, V domains shown)
VH: B16 VH with Y32D, T57M, L108K
VL: B16 VL with D32A, L98R
notes: also called MS1032LO07-SG1

Target: T1, human Fc gamma RIIb extracellular …
Assay: SPR 25C

| Binder | binding result |
| --- | --- |
| B1 | binds |
| B2 | binds |
| B3 | binds |
| B4 | binds |
| B5 | binds |
| B6 | binds |
| B7 | binds |
| B8 | binds |
| B9 | binds |
| B10 | binds |
| B11 | binds |
| B12 | binds |
| B13 | binds |
| B14 | binds |
| B15 | binds |

Target: T2, cyno Fc gamma RIIb extracellular …
Assay: SPR 25C

| Binder | binding result |
| --- | --- |
| B1 | binds |
| B2 | binds |
| B3 | binds |
| B4 | binds |
| B5 | binds |
| B6 | binds |
| B7 | binds |
| B8 | binds |
| B9 | binds |
| B10 | binds |
| B11 | binds |
| B12 | binds |
| B13 | binds |
| B14 | binds |
| B15 | binds |

Target: T3, human latent myostatin
Assay: SPR avidity condition pH7.4 37C; pH 7.4

| Binder | Kd [nM] | koff [s⁻¹] | kon [M⁻¹ s⁻¹] |
| --- | --- | --- | --- |
| B16 | 0.163 | 0.000217 | 1.33e+06 |
| B17 | 0.298 | 0.000249 | 836000 |
| B18 | 0.196 | 0.000192 | 981000 |

Target: T3, human latent myostatin
Assay: SPR avidity condition pH5.8 37C; pH 5.8

| Binder | Kd [nM] | koff [s⁻¹] | kon [M⁻¹ s⁻¹] |
| --- | --- | --- | --- |
| B16 | 9.13 | 0.00713 | 781000 |
| B17 | 24.3 | 0.0414 | 1.7e+06 |
| B18 | 9.66 | 0.00524 | 543000 |

Target: T3, human latent myostatin
Assay: SPR affinity condition pH7.4 37C

| Binder | Kd [nM] | koff [s⁻¹] | kon [M⁻¹ s⁻¹] |
| --- | --- | --- | --- |
| B16 | 0.812 | 0.00125 | 1.54e+06 |
| B17 | 1.64 | 0.00179 | 1.08e+06 |
| B18 | 1.08 | 0.00117 | 1.08e+06 |

Target: T3, human latent myostatin
Assay: SPR 37C

| Binder | ratio of KD at pH 5.8/pH7.4 |
| --- | --- |
| B19 | 119 |
| B20 | 9 |
| B21 | 168 |

Target: T4, cynomolgus monkey latent myostatin
Assay: SPR 37C

| Binder | ratio of KD at pH 5.8/pH7.4 |
| --- | --- |
| B19 | 76 |
| B20 | 5 |
| B21 | 102 |

Target: T5, mouse latent myostatin
Assay: SPR 37C

| Binder | ratio of KD at pH 5.8/pH7.4 |
| --- | --- |
| B19 | 76 |
| B20 | 6 |
| B21 | 97 |

Target: T3, human latent myostatin
Assay: SPR 37C pH7.4; pH 7.4

| Binder | Kd [nM] |
| --- | --- |
| B19 | 0.285 |
| B20 | 0.164 |
| B21 | 0.275 |

Target: T4, cynomolgus monkey latent myostatin
Assay: SPR 37C pH7.4; pH 7.4

| Binder | Kd [nM] |
| --- | --- |
| B19 | 0.343 |
| B20 | 0.189 |
| B21 | 0.339 |

Target: T5, mouse latent myostatin
Assay: SPR 37C pH7.4; pH 7.4

| Binder | Kd [nM] |
| --- | --- |
| B19 | 0.299 |
| B20 | 0.176 |
| B21 | 0.319 |

Target: T3, human latent myostatin
Assay: SPR 37C pH5.8; pH 5.8

| Binder | Kd [nM] |
| --- | --- |
| B19 | 34 |
| B20 | 1.52 |
| B21 | 46.2 |

Target: T4, cynomolgus monkey latent myostatin
Assay: SPR 37C pH5.8; pH 5.8

| Binder | Kd [nM] |
| --- | --- |
| B19 | 25.9 |
| B20 | 0.929 |
| B21 | 34.7 |

Target: T5, mouse latent myostatin
Assay: SPR 37C pH5.8; pH 5.8

| Binder | Kd [nM] |
| --- | --- |
| B19 | 22.6 |
| B20 | 1.02 |
| B21 | 30.8 |

From EP4755449A2 (CHUGAI SEIYAKU KABUSHIKI KAISHA, dated 2026)
